Biological target: T1, human Tetraspanin 33 (TSPAN33) (human, UniProt Q86UF1 1-283)
T1 sequence: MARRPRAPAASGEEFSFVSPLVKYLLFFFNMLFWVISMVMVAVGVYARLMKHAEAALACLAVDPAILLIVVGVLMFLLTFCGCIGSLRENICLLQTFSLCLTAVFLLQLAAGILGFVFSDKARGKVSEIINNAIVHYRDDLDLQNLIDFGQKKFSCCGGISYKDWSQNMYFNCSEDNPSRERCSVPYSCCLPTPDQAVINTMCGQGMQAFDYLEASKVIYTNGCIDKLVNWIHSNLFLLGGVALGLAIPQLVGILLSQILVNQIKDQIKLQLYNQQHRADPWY
Assay: flow cytometry on human PBMCs activated with CD40L and IL-4; detection with anti-mouse IgG PE
Description: Human peripheral blood mononuclear cells (PBMCs) were isolated in aseptic conditions through a gradient of Ficoll-Paque PLUS (GE Healthcare) according manufacturer instructions. The PBMCs were counted and adjusted in complete RPMI-1640 (10% fetal bovine serum, […] Penicillin, and 1 mg/ml Streptomycin) to a cell density of 1×10⁶ cells/mL. Cells were activated by adding CD40L (TNFSF5; 1 μg/mL) and recombinant human IL-4 (100 U/mL) to the culture. The cells were incubated overnight at 37° C. with 5% CO₂.
The next day the cells were washed with Biolegend's Cell Staining Buffer, and 1×10⁶ cells were stained for 15 minutes in the dark with anti-human CD20-APC and purified anti-human TSPAN33 or purified mouse IgG2b, k isotype control, in a volume of 100 μL. Cells were washed twice with 3 mL of Cell Staining Buffer and then stained for 15 minutes in the dark with anti-mouse IgG PE, in a volume of 100 μL. Then the cells were washed twice with 3 mL of Cell Staining Buffer and analyzed on a flow cytometer. 7-AAD Viability Staining Solution was used to exclude dead cells from analysis.

B1: AB1, mouse anti-TSPAN33 monoclonal antibody (antibody, V domains shown)
VH: EVKLVESGGGLVQPGGSLSLSCAASGFTFTDYYMTWVRQPPGKALEWLVFIRNKANGYTTEYSASVKGRFTISRDNSQSILYLQMNALRAEDSATYYCARYLQTGNFDYWGQGTTLTVSS
VL: EIQMIQTTSSLTASLGDRVTISCRASQDISNFLNWYQQKPDGTIKLLIYFTSRLHSGVPSRFSGSGSGTDYSLTISNLEQEDIATYFCQQGYTVPPTFGGGTKLEIK
notes: Murine monoclonal antibody from a hybridoma; also called AB (clone) Number 1
binding result: binds

From US20210095018A1 (BIOLEGEND, published 2021)
